From patent publication US5811533, “High-affinity oligonucleotide ligands to vascular endothelial growth factor (VEGF)” (NeXstar Pharmaceuticals, Inc.)

Tests used:
[1] = target: T1, VEGF165 (recombinant human vascular endothelial growth factor, 165 aa form) (Homo sapiens, UniProt P15692-4 P15692-4:27-191); assay: filter; PBS, 0.01% HSA, 37 C; Kd1, X1 0.76, Kd2 180 nM; conditions: tags: gift from N. Ferrara, Genentech; chain copies: 2 (dimer, stated); label: 32P; bulged hairpin
Procedure: (§1) Internally-labeled RNA ligands used for binding studies were prepared by in vitro transcription using T7 RNA polymerase (Milligan et al. (1987) Nucl. Acids Res. 15:8783) and were purified on denaturing polyacrylamide gels to ensure size homogeneity. All RNA ligands were diluted to about 1 nM in PBS, denatured at 90° C. for 2 minutes, and then cooled on ice prior to incubation with the protein. This denaturation/renaturation cycle performed at high dilution is necessary to ensure that the RNA is essentially free from dimers and other higher order aggregates. Concentrations of the stock solutions of VEGF, from which other dilutions were made, were determined from the absorbance reading at 280 nm using the calculated value for ε280 of 46,600 M^-1cm^-1 for the VEGF dimer (Gill et al. (1989) Anal. Biochem. 182:319). Data sets that define the binding curves were fit to either eq. 2 or eq. 5 by the non-linear least squares method using the software package Kaleidagraph (Synergy Software, Reading, Pa.). […]

[2] = target: T1, VEGF165 (recombinant human vascular …); assay: filter; monophasic; conditions: tags: gift from N. Ferrara, Genentech; chain copies: 2 (dimer, stated)
[3] = target: T1, VEGF165 (recombinant human vascular …); assay: filter; Kd1, X1 0.82, Kd2 10-100 nM; conditions: tags: gift from N. Ferrara, Genentech; chain copies: 2 (dimer, stated)
[4] = target: T1, VEGF165 (recombinant human vascular …); assay: filter; PBS, 0.01% HSA, 37 C; Kd1, X1 0.70, Kd2 38 nM; conditions: tags: gift from N. Ferrara, Genentech; chain copies: 2 (dimer, stated); label: 32P
Procedure: as §1

[5] = target: T1, VEGF165 (recombinant human vascular …); assay: filter; Kd1, X1 0.54, Kd2 9 nM; conditions: tags: gift from N. Ferrara, Genentech; chain copies: 2 (dimer, stated)
[6] = target: T1, VEGF165 (recombinant human vascular …); assay: filter; PBS, 0.01% HSA, 37 C; monophasic; conditions: tags: gift from N. Ferrara, Genentech; chain copies: 2 (dimer, stated); label: 32P; bulged hairpin
Procedure: as §1

[7] = target: T1, VEGF165 (recombinant human vascular …); assay: inhibition; VEGF receptor binding; single value printed in Ki column; conditions: tags: gift from N. Ferrara, Genentech; chain copies: 2 (dimer, stated)
antithrombin III = antithrombin III (UniProt P01008 P01008:33-464); assay: filter; specificity; conditions: label: 32P
Sequence of antithrombin III (P01008 33-464, one chain of several): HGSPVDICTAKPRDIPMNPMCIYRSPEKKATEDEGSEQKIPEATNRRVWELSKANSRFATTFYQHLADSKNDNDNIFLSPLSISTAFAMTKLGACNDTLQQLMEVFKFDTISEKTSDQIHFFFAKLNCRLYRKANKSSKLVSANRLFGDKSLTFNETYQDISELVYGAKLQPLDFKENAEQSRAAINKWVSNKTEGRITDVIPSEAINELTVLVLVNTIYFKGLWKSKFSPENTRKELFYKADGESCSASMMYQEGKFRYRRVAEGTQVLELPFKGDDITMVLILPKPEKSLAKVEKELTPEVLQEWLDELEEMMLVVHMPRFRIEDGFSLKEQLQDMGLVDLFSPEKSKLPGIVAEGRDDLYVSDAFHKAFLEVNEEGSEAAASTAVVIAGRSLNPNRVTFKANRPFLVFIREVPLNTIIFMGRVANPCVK
Procedure: (§2) Dissociation constants were determined using the nitrocellulose filter partitioning technique.

bFGF = bFGF (UniProt P09038 P09038:143-288); assay: filter; specificity; conditions: label: 32P
Sequence of bFGF (P09038 143-288, one chain of several): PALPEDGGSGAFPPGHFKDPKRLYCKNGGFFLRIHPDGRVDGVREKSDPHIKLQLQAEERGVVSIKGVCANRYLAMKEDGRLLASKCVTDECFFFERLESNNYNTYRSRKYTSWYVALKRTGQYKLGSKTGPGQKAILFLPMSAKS
Procedure: as §2

[8] = target: T1, VEGF165 (recombinant human vascular …); assay: filter; PBS, 0.01% HSA, 37 C; Kd1, X1 0.76, Kd2 182 nM; conditions: tags: gift from N. Ferrara, Genentech; chain copies: 2 (dimer, stated); label: 32P
Procedure: as §1

[9] = target: T1, VEGF165 (recombinant human vascular …); assay: filter; PBS, 0.01% HSA, 37 C; Kd1, X1 0.54, Kd2 181 nM; conditions: tags: gift from N. Ferrara, Genentech; chain copies: 2 (dimer, stated); label: 32P
Procedure: as §1

[10] = target: T1, VEGF165 (recombinant human vascular …); assay: filter; Kd1, X1 0.68, Kd2 ~100 nM; conditions: tags: gift from N. Ferrara, Genentech; chain copies: 2 (dimer, stated)
[11] = target: T1, VEGF165 (recombinant human vascular …); assay: filter; Kd1, X1 0.42, Kd2 ~100 nM; conditions: tags: gift from N. Ferrara, Genentech; chain copies: 2 (dimer, stated)
[12] = target: T1, VEGF165 (recombinant human vascular …); assay: filter; conditions: tags: gift from N. Ferrara, Genentech; chain copies: 2 (dimer, stated)
[13] = target: T1, VEGF165 (recombinant human vascular …); assay: inhibition; VEGF receptor binding; conditions: tags: gift from N. Ferrara, Genentech; chain copies: 2 (dimer, stated)
[14] = target: T1, VEGF165 (recombinant human vascular …); assay: filter; PBS, 0.01% HSA, 37 C; Kd1, X1 0.53, Kd2 31 nM; conditions: tags: gift from N. Ferrara, Genentech; chain copies: 2 (dimer, stated); label: 32P; asymmetrical internal loop
Procedure: as §1

[15] = target: T1, VEGF165 (recombinant human vascular …); assay: filter; PBS, 0.01% HSA, 37 C; Kd1, X1 0.56, Kd2 21 nM; conditions: tags: gift from N. Ferrara, Genentech; chain copies: 2 (dimer, stated); label: 32P
Procedure: as §1

[16] = target: T1, VEGF165 (recombinant human vascular …); assay: filter; PBS, 0.01% HSA, 37 C; Kd1, X1 0.19, Kd2 10 nM; conditions: tags: gift from N. Ferrara, Genentech; chain copies: 2 (dimer, stated); label: 32P
Procedure: as §1

[17] = target: T1, VEGF165 (recombinant human vascular …); assay: filter; PBS, 0.01% HSA, 37 C; Kd1, X1 0.40, Kd2 11 nM; conditions: tags: gift from N. Ferrara, Genentech; chain copies: 2 (dimer, stated); label: 32P
Procedure: as §1

[18] = target: T1, VEGF165 (recombinant human vascular …); assay: filter; Kd1, X1 0.50, Kd2 15 nM; conditions: tags: gift from N. Ferrara, Genentech; chain copies: 2 (dimer, stated)
[19] = target: T1, VEGF165 (recombinant human vascular …); assay: filter; PBS, 0.01% HSA, 37 C; Kd1, X1 0.82, Kd2 42 nM; conditions: tags: gift from N. Ferrara, Genentech; chain copies: 2 (dimer, stated); label: 32P
Procedure: as §1

[20] = target: T1, VEGF165 (recombinant human vascular …); assay: filter; PBS, 0.01% HSA, 37 C; Kd1, X1 0.45, Kd2 21 nM; conditions: tags: gift from N. Ferrara, Genentech; chain copies: 2 (dimer, stated); label: 32P
Procedure: as §1

[21] = target: T1, VEGF165 (recombinant human vascular …); assay: filter; PBS, 0.01% HSA, 37 C; Kd1, X1 0.73, Kd2 82 nM; conditions: tags: gift from N. Ferrara, Genentech; chain copies: 2 (dimer, stated); label: 32P
Procedure: as §1

[22] = target: T1, VEGF165 (recombinant human vascular …); assay: filter; Kd1, X1 0.79, Kd2 ~100 nM; conditions: tags: gift from N. Ferrara, Genentech; chain copies: 2 (dimer, stated)

T1 sequence (P15692 other isoform, or with tags, fused parts or gaps): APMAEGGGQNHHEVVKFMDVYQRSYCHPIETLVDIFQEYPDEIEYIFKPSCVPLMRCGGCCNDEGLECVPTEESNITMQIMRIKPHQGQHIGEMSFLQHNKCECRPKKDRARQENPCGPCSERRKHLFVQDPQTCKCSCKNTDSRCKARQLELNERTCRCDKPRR

B1: ligand 12t (ssRNA)
RNA: GGAAGGGAACCUGCGUCUCGGCACCUUCG
Kd [1]: 1.1 nM

B2: 23A (ssRNA)
RNA: GGGAGACAAGAAUAACGCUCAAGAGGCUGAUGGCAGACGCGGCCGAAGACAUUCGACAGGAGGCUCACAACAGGC
modifications: 2'-NH2 pyrimidines
Kd [2]: 2.8 nM

B3: 34B (ssRNA)
RNA: GGGAGGACGAUGCGGUGUGGUCAAUGUGGGGUAGGGCUGGUAGGGCAUUCCGUACUGGUGUGGUCAGACGACUCGCCCGA
modifications: 2'-NH2 pyrimidines
Kd [3]: 0.068 nM

B4: ligand 44 (ssRNA)
RNA: GGGAGCUCAGAAUAAACGCUCAAGCUUGAUGGGUGACACACGUCAUGCCGAGCUUCGACAUGAGGCCCGGAUCCGGC
Kd [4]: 1.7 nM

B5: 44B (ssRNA)
RNA: GGGAGGACGAUGCGGAACCGAGUCGUGUGGGUUGGGGCUCCAGUACAUCCCCGGUCUGGGUGUCAGACGACUCGCCCGA
modifications: 2'-NH2 pyrimidines
Kd [5]: 0.14 nM

B6: ligand 40t (ssRNA)
RNA: GGUCAACGGUUGAGUCUGUCCCGUUCGAC
Kd [6]: 20 nM

B7: NX-107 (ssRNA)
RNA: ACCCUGAUGGUAGACGCCGGGGUG
modifications: 2'-NH2 pyrimidines
Ki [7]: 1 nM

B8: ligand 100t (ssRNA)
RNA: GGCCGGUAGUCGCAUGGCCCAUCGCGCCCGG
Kd (antithrombin III): 3000 nM
Kd (bFGF): 1000 nM
Kd [8]: 0.42 nM

B9: ligand 126t (ssRNA)
RNA: GGAACGGUUCUGUGUGUGGACUAGCCGCGGCCGUU
Kd [9]: 1.4 nM

B10: 41A (ssRNA)
RNA: GGGAGACAAGAAUAACGCUCAAAACGGAGUGGUAGGCGUUGGGUGCCAGGAAUUCGACAGGAGGCUCACAACAGGC
modifications: 2'-NH2 pyrimidines
Kd [10]: 0.86 nM

B11: 14A (ssRNA)
RNA: GGGAGACAAGAAUAACGCUCAAGCAACAGAGGCUGAUGGUAGACGCCGGCCAUUCGACAGGAGGCUCACAACAGGC
modifications: 2'-NH2 pyrimidines
Kd [11]: 0.7 nM

B12: 33t (ssDNA)
DNA: CCCGTCTTCCAGACAAGAGTGCAGGG
Kd [12]: 0.7 nM
Ki [13]: 3 nM

B13: ligand 84t (ssRNA)
RNA: GGCUCAAUAGUUGGAGGCCUGUCCUCGCCGUAGAGC
Kd [14]: 1.8 nM

B14: ligand 12 (ssRNA)
RNA: GGGAGCUCAGAAUAAACGCUCAAGCAGACGAAGGGAACCUGCGUCUCGGCACCUUCGACAUGAGGCCCGGAUCCGGC
Kd [15]: 0.48 nM

B15: ligand 40 (ssRNA)
RNA: GGGAGCUCAGAAUAAACGCUCAAGACCCAUCGUCAACGGUUGAGUCUGUCCCGUUCGACAUGAGGCCCGGAUCCGGC
Kd [16]: 0.19 nM

B16: ligand 126 (ssRNA)
RNA: GGGAGCUCAGAAUAAACGCUCAAACGGUUCUGUGUGUGGACUAGCCGCGGCCGUUCGACAUGAGGCCCGGAUCCGGC
Kd [17]: 0.14 nM

B17: 32B (ssRNA)
RNA: GGGAGGACGAUGCGGCAACAUUGGCACCAAUGCUCUGUGUUAAUGUGGGGUGGGAACGGCGCCGCAGACGACUCGCCCGA
modifications: 2'-NH2 pyrimidines
Kd [18]: 0.05 nM

B18: ligand 100 (ssRNA)
RNA: GGGAGCUCAGAAUAAACGCUCAACCGGUAGUCGCAUGGCCCAUCGCGCCCGGUUCGACAUGAGGCCCGGAUCCGGC
Kd [19]: 0.2 nM

B19: ligand 84 (ssRNA)
RNA: GGGAGCUCAGAAUAAACGCUCAAUAGUUGGAGGCCUGUCCUCGCCGUAGAGCGUUCGACAUGAGGCCCGGAUCCGGC
Kd [20]: 0.82 nM

B20: ligand 44t (ssRNA)
RNA: GGAAGCUUGAUGGGUGACACACGUCAUGCCGAGCU
Kd (antithrombin III): 12000 nM
Kd (bFGF): 600 nM
Kd [21]: 0.48 nM

B21: 24A (ssRNA)
RNA: GGGAGACAAGAAUAACGCUCAACCCUGAUGGUAGACGCCGGGGUGCCGGAAUUCGACAGGAGGCUCACAACAGGC
modifications: 2'-NH2 pyrimidines
Kd [22]: 0.71 nM
